Consider three molecules from patent US7132505B1, “Polypeptide inhibiting a proton-gated Na+ channel, a nucleic acid coding for such polypeptide and a method of manufacturing an ASIC1a channel blocker” (Centre National de la Recherche Scientifique - CNRS, dated 2006).

A word on the IC50: it is the point on the concentration scale where inhibition reaches its midpoint.

No end group written: not given here.

The target of test [1] is ASIC1a channel (homomultimer).
Test [2] deals with T1, ASIC1a channel (Rattus norvegicus, UniProt P55926).
T1 sequence (P55926 1-526): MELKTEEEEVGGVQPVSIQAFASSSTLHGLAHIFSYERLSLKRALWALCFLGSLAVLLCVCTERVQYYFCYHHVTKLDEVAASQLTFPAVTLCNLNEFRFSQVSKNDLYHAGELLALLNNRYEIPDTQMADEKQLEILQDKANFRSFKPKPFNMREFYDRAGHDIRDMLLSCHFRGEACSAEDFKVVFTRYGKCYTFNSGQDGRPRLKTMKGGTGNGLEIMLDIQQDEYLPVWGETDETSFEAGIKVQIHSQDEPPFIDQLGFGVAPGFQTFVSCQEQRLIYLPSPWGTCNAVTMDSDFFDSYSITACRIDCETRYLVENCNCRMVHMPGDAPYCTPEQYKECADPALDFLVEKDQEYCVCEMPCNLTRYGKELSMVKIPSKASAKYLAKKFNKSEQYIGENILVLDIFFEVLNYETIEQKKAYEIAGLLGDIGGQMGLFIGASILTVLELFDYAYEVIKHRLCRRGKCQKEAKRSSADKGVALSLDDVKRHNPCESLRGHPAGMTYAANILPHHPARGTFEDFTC
Particulars: read-out: IC50 for block of ASIC1a channel; cited from earlier work.

For test [3], the system named is ASIC1a, ASIC1b, ASIC2a, and ASIC3. The following applies: cited from earlier work.
Test [4] deals with T1, ASIC1a channel. The test can be described thus: Amiloride block of ASIC1a channel. The test is classed as cell-based. Particulars: IC50 10 μM versus 0.9 nM.
The target in test [5] is ASIC1a channel (homomultimer). The source holds these as a separate data set.
Test [6] concerns the target T2, native PcTX1-sensitive H+-gated channel of rat dorsal root ganglion neurons (suggested by the filing to be a … (rat, UniProt P55926)).
T2 sequence: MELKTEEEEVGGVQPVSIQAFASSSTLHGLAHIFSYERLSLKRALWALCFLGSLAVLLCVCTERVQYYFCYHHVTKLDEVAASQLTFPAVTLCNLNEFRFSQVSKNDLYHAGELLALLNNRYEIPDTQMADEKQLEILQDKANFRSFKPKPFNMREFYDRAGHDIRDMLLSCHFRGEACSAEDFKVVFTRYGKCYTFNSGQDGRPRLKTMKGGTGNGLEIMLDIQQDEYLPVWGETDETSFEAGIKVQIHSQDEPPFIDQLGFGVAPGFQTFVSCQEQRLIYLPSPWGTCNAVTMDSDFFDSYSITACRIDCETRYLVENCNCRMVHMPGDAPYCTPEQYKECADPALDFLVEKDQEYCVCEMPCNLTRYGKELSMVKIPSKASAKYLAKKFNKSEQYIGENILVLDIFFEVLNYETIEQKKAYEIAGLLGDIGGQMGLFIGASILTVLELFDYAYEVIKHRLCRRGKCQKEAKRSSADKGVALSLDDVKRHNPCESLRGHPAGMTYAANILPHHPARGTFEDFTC
The test can be described thus: cell-based or functional assay.

“crude Psalmopoeus cambridgei venom (pool or library)”: the ASIC1a current in Xenopus oocytes in test [1] amounted to 90%.

On to `N=C(N)NC(=O)c1nc(Cl)c(N)nc1N` [amiloride], for which the IC50 on ASIC1a channel [2] is 10 µM. The “block of transient current generated by ASIC1a, ASIC1b, ASIC2a, and ASIC3” value in test [3] was “blocks all transient expression of current”. In addition, on ASIC1a channel [4], the “affinity for ASIC1a relative to PcTX1 (fold lower)” value is listed as 10^4.

B1: Psalmotoxin 1 (PcTX1) (peptide)
peptide: EDCIPKWKGCVNRHGDCCEGLECWKRRRSFEVCVPKTPKT-OH
modifications: disulfide (positions not given here)
In test [5], B1 registered an IC50 of block of the ASIC1a current recorded at pH 6 in Xenopus oocytes of 0.9 nM. For the same molecule, the “IC50 of inhibition of the H+-gated current in the PcTX1-sensitive population of DRG neurons” value in test [6] was found to be 0.0007 µM.
